Experimental findings from patent publication US11124785B2, “Rothia subtilisins, S8A family proteases, as therapeutic enzymes for application in gluten intolerance disorders” (TRUSTEES OF BOSTON UNIVERSITY, priority 2016, dated 2021) are described below.

The test system of assay [1] is R. mucilaginosa enzyme preparation (Rmep). In words: Inhibitor profile of Rmep (Suc-AAPF-pNA hydrolysis). The class given is biochemical, Rothia mucilaginosa. The settings on record: for inhibition of Rmep activity: AEBSF 10 mM, aprotinin 0.08 mM, E-64 0.1 mM, EDTA 1.5 mM, PMSF 1 mM, Rmep 5.7 μg/ml, Suc-AAPF-pNA. As to the method:
Inhibitors AEBSF, Aprotinin, E-64, EDTA, PMSF and Eglin C were tested at final concentrations of 10 mM, 0.08 mM, 0.1 mM, 1.5 mM, 1 mM, and 0.06 μM, respectively. Rmep was added at a final concentration of 5.7 μg/ml. The percent inhibition was determined from the ratio of the initial velocities of hydrolysis of Suc-AAPF-pNA (SEQ ID NO: 4) in the absence and presence of inhibitor.
(§1) Hydrolysis of paranitroanilide-derivatized substrates—Paranitroanilide (pNA)-derivatized tripeptide substrates were chemically synthesized at >90% purity (21st Century Biochemicals, Marlborough, Mass.). The substrates obtained were Z-YPQ-pNA, Z-QQP-pNA, Z-LPY-pNA, Z-PFP-pNA, Z-PPF-pNA, where Z=benzyloxycarbonyl, Y=tyrosine, P=proline, Q=glutamine, L=leucine, and F=phenylalanine Suc-AAPF-pNA (SEQ ID NO: 4) was obtained from Sigma, where Suc=N-succinyl and A=alanine. The peptides were dissolved in 75-100% DMSO at 10 mM, and were used at a final concentration of 200 μM in 50 mM TrisHCl pH 8.0. Purified Rothia enzyme or subtilisin A from Bacillus licheniformis (Sigma) were tested at final concentrations of 1 μg/ml. Some experiments were conducted in the presence of inhibitors 4-(2-Aminoethyl) benzenesulfonyl fluoride (AEBSF), Aprotinin, E-64, EDTA, phenylmethanesulfonyl fluoride (PMSF) and Eglin C, which were tested at final concentrations of 10 mM, 0.08 mM, 0.1 mM, 1.5 mM, 1 mM, and 0.06-1.2 μM, respectively. Enzymes were preincubated with the inhibitors for 20 min before adding Suc-AAPF-pNA (SEQ ID NO: 4). Substrate hydrolysis was monitored for 10 h at 405 nm using a Genios microtiter plate reader (Tecan, Männedorf, Switzerland) in the kinetic mode at 37° C.

Assay [2] has as its system Suc-AAPF-pNA. The experiment in a line: Hydrolysis of paranitroanilide-derivatized substrate Suc-AAPF-pNA. The class given is biochemical. The settings on record: substrate 200 μM; enzyme 1 μg/ml (NattoK: dilution series); 50 mM TrisHCl pH 8.0, 37° C. As to the method: FIG. 4A and FIG. 4B are representative graphs of the hydrolysis of the substrates: Suc-AAPF-pNA (SEQ ID NO: 4), Z-YPQ-pNA, and Z-LPY-pNA, each at 200 μM, by Rmep and subtilisin A, respectively, each at 1 μg/ml.
FIG. 8C show a representative graph of the hydrolysis of the substrate, Suc-AAPF-pNA (SEQ ID NO: 4), with a dilution series of NattoK. Suc-AAPF-pNA (SEQ ID NO: 4) was incubated […]. Hydrolysis was measured at 405 nm.
as §1

Assay [3] relates to mixed gliadins. The experiment in a line: Degradation of mixed gliadins (SDS-PAGE). The settings on record: gliadins 250 μg/ml; NattoK 57 μg/ml 0-120 min and dilution series 3.5-0.06 μg/ml 30 min. The class given is biochemical, wheat. As to the method:
FIG. 5A is a representative SDS-PAGE gel of non-digested gliadins (control) and Rmep-treated gliadins. Gliadins (250 μg/ml) in 50 mM Tris/HCl pH 8.0 were incubated with Rmep at 57 μg/ml. After 0, 15 min, 30 min and 2 h incubation 100 μl aliquots were removed, boiled and analyzed by SDS-PAGE and stained with COOMASSIE Brilliant Blue. The bold arrow (left) points to the position of the major band in the gliadin preparation; the thin arrow (right) to the 125 kDa band in the Rmep preparation, and the dotted arrows (right) to the gliadin degradation fragments.
FIG. 6A is a representative SDS-PAGE gel of non-digested gliadins (control) and subtilisin A-treated gliadins. Gliadins (250 μg/ml) in 50 mM Tris/HCl pH 8.0 were incubated with subtilisin A at 57 μg/ml. Experiments were conducted as described in the legend of FIG. 5 with subtilisin A instead of Rmep.
FIG. 8A is a representative SDS-PAGE gel of non-digested gliadins (control) and NattoK-treated gliadins. Mixed gliadins (G, 250 μg/ml) were incubated with NattoK (57 μg/ml) for 0, 15, 30 and 120 min. Left four lanes: controls without enzyme or gliadins, respectively, each at t=0 and 120 min. Arrow points to the major components in the gliadin mixture represented by α and γ-gliadins containing most of the immunogenic epitopes.
(§2) Degradation of mixed gliadins and the 33-mer peptide—Mixed gliadins were obtained from Sigma. A synthetic highly immunogenic α-gliadin derived 33-mer peptide (26) was synthesized at a purity of >90% (21st Century Biochemicals). Mixed gliadins or the 33-mer peptide (each at final concentration 250 μg/ml) were incubated with Rmep or subtilisin A (each at 57 μg/ml) in 50 mM TrisHCl, pH 8.0. After t=0, 15 min, 30 min, and 2 h, 100 μl sample aliquots were removed and boiled. Gliadin degradation was assessed by 4-12% SDS-PAGE followed by Coomassie staining, and 33-mer degradation was determined by RP-HPLC.

Assay [4] deals with α-gliadin derived 33-mer peptide. The experiment in a line: Degradation of the 33-mer peptide (RP-HPLC). The class given is biochemical. The settings on record: 33-mer 250 μg/ml, NattoK 57 μg/ml, 0-120 min; large fragment remained. As to the method:
FIG. 8D is a representative chromatogram of the RP-HPLC analysis of the degradation of the gliadin-derived 33-mer (250 μg/ml) incubated for 0, 15, 30 and 120 min with NattoK 57 μg/ml).
as §2
Reversed-phase high performance liquid chromatography (RP-HPLC)—Separation of the 33-mer peptide and its fragments was achieved by RP-HPLC, using buffer A (0.1% trifluoroacetic acid) and buffer B (0.1% trifluoroacetic acid in 80% acetonitrile) at a gradient of 0-55% buffer B over 75 min time interval. The equipment used was an HPLC Model 715 (Gilson, Middleton, Wis.) and a C-18 column (TSK-GEL […], ODS-120T, TOSOHaas, Montgomeryville, Pa.) (22, 25).

In assay [5] the test system is R5 epitopes (QQPFP and related pentapeptides) in mixed gliadins. In words: R5 ELISA, gluten epitope elimination in gliadin digests. The settings on record: gliadins 250 μg/ml, NattoK 57 μg/ml, 0-120 min. The class given is biochemical. As for the experimental part: FIG. 8E and FIG. 8F show the assessment of the survival of epitopes in the gliadin-NattoK degradation mixture employing the R5 ELISA (FIG. 8E) or G12 ELISA (FIG. 8F) assays. Epitope abolishment in Mixed gliadins (250 μg/ml) were incubated with NattoK (57 μg/ml) for 0, 15, 30 and 120 min and then assayed by the R5 ELISA or G12 ELISA.
R5 and G12 ELISA assays—Gluten epitope elimination in the gliadin-Rmep and gliadin-subtilisin A digests was assessed using two sandwich ELISA assays employing the R5 monoclonal antibody (RIDASCREEN Gliadin, R-Biopharm, Darmstadt, Germany) or the G12 monoclonal antibody (AgraQuant® ELISA Gluten G12, Romer labs, Union, Mo.). To prevent high background values, the R5 plate wells were blocked with 1% skim milk in PBS prior to incubation with the samples. The assays were performed according to the manufacturers' instructions and as described (21, 24).
To further investigate this, the time courses of degradation of mixed gliadins and the highly immunogenic 33-mer α-gliadin peptide were determined. Furthermore, epitope elimination was monitored by two ELISA assays employing the R5 antibody recognizing QQPFP (SEQ ID NO: 40) and related pentapeptides (27, 28) and the G12 antibody recognizing QPQLPY (SEQ ID NO: 22) contained in the 33-mer peptide (29, 30). Data obtained with Rmep are shown in FIG. 5, and with subtilisin A in FIG. 6.
For orientation: An ELISA detects its analyte on a solid surface through an enzyme-linked reagent.

The subject of assay [6] is wheat ATI proteins. In words: Degradation of amylase-trypsin inhibitors (SDS-PAGE). The class given is biochemical. The settings on record: ATIs 500 μg/ml. As to the method: (§3) FIGS. 15A-15F show effective ATI degradation by subtilisins from B. subtilis (nattokinase). […] ATI (500 μg/ml) incubated with Rmep from R. mucilaginosa (FIG. 15A) or nattokinase from B. subtilis (FIG. 15C) at 50, 25, or 10 μg/ml; FIGS. 15B and 15D, Gliadins (500 μg/ml) incubated with Rmep (FIG. 15B) or nattokinase (FIG. 15D) at 25 μg/ml. FIGS. 15E and 15F, ATIs incubated with control heat inactivated enzymes, Rmep (FIG. 15E) or nattokinase (FIG. 15F).
(§4) ATIs were isolated from wheat cultivars as described^3. They were incubated at a final concentration of 500 μg/ml with 10, 25 or 50 μg/ml Rmep (from R. mucilaginosa), or nattokinase (from B. subtilis). The controls incubations were carried out with heat-inactivated Rmep and nattokinase. Experiments were conducted in 50 mM Tris-HCl, pH 8.0. After 0, 15 min, 30 min, 1 h, and 4 h incubation, 20 μl aliquots were removed, mixed with SDS-sample buffer, heated at 85° C. for 5 min and analyzed by 4-12% SDS PAGE. Proteins were visualized with Coomassie Blue staining.

The test system of assay [7] is gliadins. In words: Gliadin degradation control of Example 3 (SDS-PAGE). The class given is biochemical. The settings on record: gliadins 500 μg/ml, enzyme 25 μg/ml, pH 8.0. As for the experimental part: as §3, §4

As to `NCCc1ccc(S(=O)(=O)F)cc1` [AEBSF, 4-(2-Aminoethyl) benzenesulfonyl fluoride], the “inhibition of Rmep activity” value in assay [1] is “inhibited effectively”.
Same read-out and setting: the entry for `CC(C)C[C@H](NC(=O)[C@H]1O[C@@H]1C(=O)O)C(=O)NCCCCN=C(N)N` [E64] is “not”; for `O=C(O)CN(CCN(CC(=O)O)CC(=O)O)CC(=O)O` [EDTA, ethylenediaminetetraacetic acid] it is “not”.
Turning to `O=S(=O)(F)Cc1ccccc1` [PMSF, phenylmethanesulfonyl fluoride], in assay [1] (1 mM PMSF, stated as embodiment), the “inhibition of the Rothia subtilisin by PMSF” value was 100%. Further, the “inhibition of Rmep activity” value in assay [1] is “inhibited effectively”.
Take aprotinin: the “inhibition of Rmep activity” value in assay [1] is reported as “partial inhibition”.

B1: NattoK: nattokinase, a 27.7 kDa subtilisin enzyme from B. subtilis, available in pure form as a dietary supplement (protein, listed as Bacillus subtilis)
chain: MRSKKLWISLLFALTLIFTMAFSNMSAQAAGKSSTEKKYIVGFKQTMSAMSSAKKKDVISEKGGKVQKQFKYVNAAAATLDEKAVKELKKDPSVAYVEEDHIAHEYAQSVPYGISQIKAPALHSQGYTGSNVKVAVIDSGIDSSHPDLNVRGGASFVPSETNPYQDGSSHGTHVAGTIAALNNSIGVLGVAPSASLYAVKVLDSTGSGQYSWIINGIEWAISNNMDVINMSLGGPTGSTALKTVVDKAVSSGIVVAAAAGNEGSSGSTSTVGYPAKYPSTIAVGAVNSSNQRASFSSVGSELDVMAPGVSIQSTLPGGTYGAYNGTSMATPHVAGAAALILSKHPTWTNAQVRDRLESTATYLGNSFYYGKGLINVQAAAQ
On to B1, for which, in assay [2], the “hydrolysis of Suc-AAPF-pNA” value is given as “hydrolyzed”. Moreover, the “degradation of mixed gliadins” value in assay [3] is on record as “degraded gliadins effectively”. The “degradation of the 33-mer peptide” value in assay [4] is on record as “degraded the 33-mer peptide”. In assay [5], the “abolishment of R5 epitopes” value is listed as “abolished”. Moreover, the “ATIs degraded after 4 h incubation with 10 μg/ml enzyme” value in assay [6] (10 μg/ml enzyme, 4 h) was “Approximately 50%”. The “ATIs degraded after 1 h incubation with 50 μg/ml enzyme” value in assay [6] (50 μg/ml enzyme, 1 h) is reported as “Approximately 50%”. Also, the “degradation of wheat ATI proteins” value in assay [6] (enzyme 10, 25 or 50 μg/ml, pH 8.0, up to 4 h) was “susceptible to proteolysis”. Besides, the degradation of gliadins result in assay [7] is listed as “rapidly degraded”.
